Target: T1, Sulfolobus solfataricus PolB1, unlabelled (Sulfolobus solfataricus, UniProt P26811 1-882)
T1 sequence (looked up): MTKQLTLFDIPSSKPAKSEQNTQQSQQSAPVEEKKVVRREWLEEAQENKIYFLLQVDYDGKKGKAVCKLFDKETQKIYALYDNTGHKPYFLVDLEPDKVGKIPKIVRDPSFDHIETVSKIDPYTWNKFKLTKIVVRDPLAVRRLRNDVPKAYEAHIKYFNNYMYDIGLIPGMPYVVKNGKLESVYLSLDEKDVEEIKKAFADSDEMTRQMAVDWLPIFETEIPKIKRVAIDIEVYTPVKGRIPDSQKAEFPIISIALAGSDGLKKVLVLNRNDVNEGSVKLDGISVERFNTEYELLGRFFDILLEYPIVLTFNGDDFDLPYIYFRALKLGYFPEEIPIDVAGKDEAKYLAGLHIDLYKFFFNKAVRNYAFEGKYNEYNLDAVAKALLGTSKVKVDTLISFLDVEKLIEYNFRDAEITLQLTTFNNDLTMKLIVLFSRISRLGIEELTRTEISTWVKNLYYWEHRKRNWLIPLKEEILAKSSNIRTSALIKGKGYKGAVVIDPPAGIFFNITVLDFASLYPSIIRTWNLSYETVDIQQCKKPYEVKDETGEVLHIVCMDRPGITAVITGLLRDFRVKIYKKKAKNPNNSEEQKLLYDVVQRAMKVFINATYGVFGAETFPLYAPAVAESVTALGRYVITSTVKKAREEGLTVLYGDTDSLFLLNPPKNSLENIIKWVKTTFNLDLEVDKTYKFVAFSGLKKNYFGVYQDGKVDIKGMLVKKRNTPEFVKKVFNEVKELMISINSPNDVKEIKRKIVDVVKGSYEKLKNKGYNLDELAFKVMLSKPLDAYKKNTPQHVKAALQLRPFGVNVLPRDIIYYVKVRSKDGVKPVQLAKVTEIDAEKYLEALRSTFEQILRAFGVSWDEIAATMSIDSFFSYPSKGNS
Assay: SEC

B1: Sulfolobus solfataricus Dpo4 (PolY), wild type, unlabelled (enzyme)
chain: MIVLFVDFDYFYAQVEEVLNPSLKGKPVVVCVFSGRFEDSGAVATANYEARKFGVKAGIPIVEAKKILPNAVYLPMRKEVYQQVSSRIMNLLREYSEKIEIASIDEAYLDISDKVRDYREAYNLGLEIKNKILEKEKITVTVGISKNKVFAKIAADMAKPNGIKVIDDEEVKRLIRELDIADVPGIGNITAEKLKKLGINKLVDTLSIEFDKLKGMIGEAKAKYLISLARDEYNEPIRTRVRKSIGRIVTMKRNSRNLEEIKPYLFRAIEESYYKLDKRIPKAIHVVAVTEDLDIVSRGRTFPHGISKETAYSESVKLLQKILEEDERKIRRIGVRFSKFIEAIGLDKFFDT
B1: binds.

Reference: article PMC5737361 (Nucleic Acids Research, 2017)
